The Kd is the equilibrium constant for the complex coming apart.

Residue numbers refer to the chain shown, from its start. Where no end group is shown, it is not given here.

The values below come from US20220025023A1 (AC IMMUNE, published 2022).

The labels stand for the following.
B1: ACI-7062-406E3-Ab1 (antibody, IgG2a, V domains shown)
VH: QVTLKESGPAILQPSQTLSLTCSFSGFSLTTYGIGVGWIRQPSGKGLEWLAHIWWNDNKYYNTALKSRLTVSKDTSNNQVFLKIASVDTADTATYYCARVYGNLYYFAYWGQGTTLTVSS
VL: DVLMTQTPLSLPVSLGDRASISCRSSQSIVHRSGNTYLEWYLQKPGQSPKLLIYKVSNRFSGVPDRFSGSGSGTDFTLKISRVEAEDLGVYYCFQGSHVPTFGAGTKLELKR
notes: also called 406E3D5; clone 5
B2: ACI-7062-406E3-Ab2 (antibody, IgG2a, V domains shown)
VH: B1 VH
VL: B1 VL
notes: also called 406E3G10; clone 6
B3: ACI-7062-416A11-Ab1 (antibody, IgG2a, V domains shown)
VH: B1 VH with A10G, P14S, T30S, V71I, T92A, A108G
VL: B1 VL with R32S, H98R
notes: also called 416A11B3; clone 18
B4: ACI-7062-410H3-Ab1 (antibody, IgG1, V domains shown)
VH: DVQLVESGGGLVQPGGSRRLSCAASGFTFSSFGMHWVRQAPEKGLEWVAYIRSGSDIIYYADSVKGRFTISRDNPENTLFLQMTSLRSEDTAMYYCARSGTTVPFDYWGQGTSLTVSS
VL: DIVMTQSPSSLAMSVGQKVTMSCKSSQSLLNSGNQKNYLAWYQQKPGQSPELLLYFASTRASGVPDRFIGSGSGTDFTLTISSVQAEDLADYFCQQHYSIPLTFGAGTKLELKR
notes: also called 410H3B9; clone 7
B5: ACI-7062-412A7-Ab1 (antibody, IgG2b, V domains shown)
VH: B4 VH
VL: B4 VL
notes: also called 412A7B7; clone 9

One assay deals with T1, recombinant human full-length TDP-43 (human, UniProt Q13148 1-414).
T1 construct: Recombinant full-length protein; also called FL TDP-43; recFL TDP-43
T1 sequence (Q13148 whole entry): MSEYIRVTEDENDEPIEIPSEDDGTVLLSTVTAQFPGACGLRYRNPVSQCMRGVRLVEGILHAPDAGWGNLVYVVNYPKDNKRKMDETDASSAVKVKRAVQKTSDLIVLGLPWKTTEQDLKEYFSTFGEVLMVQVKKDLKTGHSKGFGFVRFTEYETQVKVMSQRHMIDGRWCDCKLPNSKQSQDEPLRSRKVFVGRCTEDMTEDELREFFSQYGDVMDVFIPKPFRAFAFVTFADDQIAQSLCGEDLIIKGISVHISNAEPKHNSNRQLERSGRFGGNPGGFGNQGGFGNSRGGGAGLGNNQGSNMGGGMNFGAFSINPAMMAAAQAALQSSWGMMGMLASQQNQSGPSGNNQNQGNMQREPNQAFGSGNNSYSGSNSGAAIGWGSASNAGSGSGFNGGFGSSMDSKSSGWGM
Briefly: SPR affinity (Biacore 8K), antibody captured on anti-mouse IgG, TDP-43 monomer as analyte, single cycle kinetics, 1:1 model. On the procedure: Binding affinity to FL TDP-43 was evaluated by determining the dissociation constant (KD) using surface plasmon resonance (SPR; Biacore 8K, GE Healthcare Life Sciences). Anti-mouse IgG was immobilized on a CM5 Series S sensor chip (GE Healthcare Life Sciences) by amine coupling. Immobilization of andi-IgG was done at a concentration of 30 μg/ml in 10 mM sodium acetate (pH 5.5) with a flow rate of 10 μl/min for 500 s. The purified antibodies being tested, and the control antibody (2E2-D3), were injected at a concentration of 1 μg/ml at a flow rate of 10 μl/min for 500 s in 10 mM Na-acetate (pH 5.5). To evaluate KDs, recombinant human FL TDP-43 monomer analyte was injected at […] starting from 400 nM and diluting down to 1.6 nM using single cycle kinetics. The protein analyte was injected at a flow rate of 20 μl/min for 600 s contact time and a 1200 s dissociation phase, without intermediate regeneration steps. Result obtained from kinetics was evaluated using a 1:1 binding model analysis.
In general terms: In SPR one partner is held on a chip, and binding of the other changes the refractive index at the surface.
Turning to B1, the dissociation constant (Kd) amounted to 0.193 µM.

Turning to B2, the dissociation constant (Kd) was found to be 0.101 µM.

For the molecule B3, the Kd came to 0.307 µM.

As for B4, the Kd turned out to be 0.242 µM.

As to B5, the Kd is 0.0661 µM.

In another assay the target is T2, TP-26 (also: biotinylated, site not given here).
T2 construct: also called TP-26 peptide
T2 peptide: FRAFAFVTFADDQIA
Briefly: indirect ELISA, biotinylated 15-mer on streptavidin plate, hybridoma supernatant. On the procedure: (§1) Serum-free supernatants were harvested from stable hybridomas. The supernatants containing antibodies of interest were then screened by an indirect ELISA assay to determine epitopes. Epitopes were mapped using a library of TDP-43 15-mer peptides. Briefly, 96-well streptavidin-coated 96-well ELISA plates were incubated with 5 μg/mL of biotinylated 15-mer peptides spanning the amino acids (aa) 199-285 of human TDP-43 with 9 aa offset and 6 aa overlap. Plates were washed thoroughly with 0.05% Tween-20/PBS and then blocked with 1% bovine serum albumin (BSA) in 0.05% Tween-20/PBS for 1 hour at 37° C. The antibody contained in the hybridoma supernatant was then added at the indicated dilutions, and incubated for 2 hours at 37° C. after which the plates were washed as described previously. An AP-conjugated anti-mouse IgG secondary antibody (Jackson ImmunoResearch Laboratories, United Kingdom) was added at 1/1000 dilution in 0.05% Tween-20/PBS for 1 hour at 37° C. After the final wash, plates were incubated with pNPP (Sigma-Aldrich, Switzerland) an AP substrate solution, and read at 405 nm using an ELISA plate reader (Tecan).
With B1, the binding result is listed as “no binding”.

For the molecule B2, the binding result is recorded as “no binding”.

As for B3, the binding result was “no binding”.

Take B4: the binding result is on record as “no binding”.

As for B5, the binding result is on record as “no binding”.

In the next assay the target is T3, TP-31 (also: biotinylated, site not given here).
T3 construct: also called TP-31 peptide
T3 peptide: ERSGRFGGNPGGFGN
Described as above. On the procedure: as §1
For B1, the binding result was “no binding”.

Take B2: the binding result is reported as “no binding”.

For the molecule B3, the binding result is on record as “no binding”.

Regarding B4, the binding result is given as “no binding”.

On to B5, for which the binding result is recorded as “no binding”.

The next assay deals with T4, TP-27 (also: biotinylated, site not given here).
T4 construct: also called TP-27 peptide
T4 peptide: ADDQIAQSLCGEDLI
Described as above. As for the experimental part:
as §1
As for B1, the binding result was “no binding”.

Take B2: the binding result is “no binding”.

Regarding B3, the binding result is recorded as “no binding”.

As for B4, the binding result is “no binding”.

Consider B5, for which the binding result was “no binding”.

In the next assay the target is T5, TP-28 (also: biotinylated, site not given here).
T5 construct: also called TP-28 peptide
T5 peptide: CGEDLIIKGISVHIS
The assay is described as above. As for the experimental part: as §1
On to B1, for which the binding result was “no binding”.

As for B2, the binding result is recorded as “no binding”.

On to B3, for which the binding result is recorded as “no binding”.

In the case of B4, the binding result is recorded as “no binding”.

In the case of B5, the binding result is recorded as “no binding”.

Another assay deals with T6, TP-23 (also: biotinylated, site not given here).
T6 construct: also called TP-23 peptide
T6 peptide: TEDMTEDELREFFSQ
The description is as above. On the procedure: as §1
B1: the binding result is listed as “no binding”.

In the case of B2, the binding result is given as “no binding”.

Take B3: the binding result is on record as “no binding”.

On to B4, for which the binding result is reported as “no binding”.

With B5, the binding result is on record as “no binding”.

A further assay concerns the target T7, TP-30 (also: biotinylated, site not given here).
T7 construct: also called TP-30 peptide
T7 peptide: PKHNSNRQLERSGRF
Described as above. On the procedure: as §1
Consider B1, for which the binding result is given as “no binding”.

Regarding B2, the binding result is given as “no binding”.

With B3, the binding result is reported as “no binding”.

With B4, the binding result is “no binding”.

As for B5, the binding result is “no binding”.

The target in the next assay is T8, TP-29 (also: biotinylated, site not given here).
T8 construct: also called TP-29 peptide
T8 peptide: ISVHISNAEPKHNSN
The assay is described as above. On the procedure: as §1
On to B1, for which the binding result was “no binding”.

As for B2, the binding result is reported as “no binding”.

As for B3, the binding result is “no binding”.

B4: the binding result is “no binding”.

B5: the binding result was “no binding”.
